Test results as given in the supplement of paper PMC9112550, “Optimization of the antimicrobial peptide Bac7 by deep mutational scanning” (BMC Biology, 2022).

Test system: Escherichia coli TOP10
Assay: shrunken log2 fold change of peptide-encoding DNA abundance (4.5 h post-induction vs induction); higher = less antimicrobial activity (less host growth inhibition)
Settings: time post-induction: 4.5 h; library: site-saturation at positions 5, 18, 19, 20
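Also: peptides expressed intracellularly from a pBAD plasmid library in pooled LB shake-flask culture, induced with 0.3% L-arabinose, DNA abundance read by NGS, three biological replicates, DESeq2 with apeglm shrinkage.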

Sequence | shrunken log2 fold change
RRIRARPPRLPRPRPRPSFHPRP | -0.215
RRIRLRPPRLPRPRPRPWETPRP | 0.0162
RRIRARPPRLPRPRPRPDLYPRP | 0.00132
RRIRARPPRLPRPRPRPMKNPRP | 0.0488
RRIRLRPPRLPRPRPRPHGKPRP | -0.191
RRIRFRPPRLPRPRPRPWGHPRP | -0.000438
RRIRWRPPRLPRPRPRPVCPPRP | 0.142
RRIRSRPPRLPRPRPRPDYPPRP | -0.0733
RRIRFRPPRLPRPRPRPRYHPRP | -0.295
RRIRARPPRLPRPRPRPGETPRP | 0.238
RRIRGRPPRLPRPRPRPDRSPRP | 0.23
RRIRHRPPRLPRPRPRPDDWPRP | -0.0115
RRIRVRPPRLPRPRPRPWLLPRP | 0.208
RRIRIRPPRLPRPRPRPKMRPRP | 0.742
RRIRQRPPRLPRPRPRPSYFPRP | -0.515
RRIRPRPPRLPRPRPRPAWHPRP | 0.362
RRIRVRPPRLPRPRPRPWFIPRP | -0.329
RRIRYRPPRLPRPRPRPSSKPRP | -1
RRIRSRPPRLPRPRPRPGHMPRP | 0.0805
RRIRPRPPRLPRPRPRPETCPRP | 0.787

Sequence | shrunken log2 fold change
RRIRFRPPRLPRPRPRPSEDPRP | 0.00214
RRIRPRPPRLPRPRPRPPYGPRP | -0.268
RRIRNRPPRLPRPRPRPHYEPRP | 0.0239
RRIRFRPPRLPRPRPRPQPMPRP | 0.302
RRIRIRPPRLPRPRPRPPIFPRP | -0.0827
RRIRGRPPRLPRPRPRPDSRPRP | 0.122
RRIRHRPPRLPRPRPRPAIIPRP | -0.113
RRIRHRPPRLPRPRPRPFHWPRP | -0.0742
RRIRWRPPRLPRPRPRPGVPPRP | 0.184
RRIRPRPPRLPRPRPRPQLRPRP | -0.0759
RRIRQRPPRLPRPRPRPLKDPRP | -0.164
RRIRDRPPRLPRPRPRPLHTPRP | -0.0544
RRIRWRPPRLPRPRPRPIEAPRP | 0.199
RRIRPRPPRLPRPRPRPVCYPRP | -0.309
RRIRRRPPRLPRPRPRPIGVPRP | 0.273
RRIRYRPPRLPRPRPRPQSHPRP | -0.416
RRIRRRPPRLPRPRPRPMMRPRP | 0.73
RRIRLRPPRLPRPRPRPFIYPRP | -0.504
RRIRKRPPRLPRPRPRPAETPRP | 0.336
RRIRKRPPRLPRPRPRPRPIPRP | 0.824

Sequence | shrunken log2 fold change
RRIRNRPPRLPRPRPRPTGDPRP | 0.258
RRIRFRPPRLPRPRPRPALVPRP | 0.273
RRIRLRPPRLPRPRPRPNQEPRP | 0.0423
RRIRGRPPRLPRPRPRPAFHPRP | 0.209
RRIRCRPPRLPRPRPRPYPCPRP | 0.00458
RRIRERPPRLPRPRPRPNYHPRP | -0.626
RRIRYRPPRLPRPRPRPYLFPRP | -0.687
RRIRGRPPRLPRPRPRPIEEPRP | 0.235
RRIRGRPPRLPRPRPRPGHHPRP | 0.16
RRIRDRPPRLPRPRPRPELFPRP | 0.184
RRIRQRPPRLPRPRPRPHKGPRP | -0.214
RRIRLRPPRLPRPRPRPYADPRP | -0.135
RRIRVRPPRLPRPRPRPLFMPRP | -0.663
RRIRLRPPRLPRPRPRPSYTPRP | -0.792
RRIRFRPPRLPRPRPRPCGEPRP | -0.0646
RRIRQRPPRLPRPRPRPWTLPRP | -0.158
RRIRKRPPRLPRPRPRPSSRPRP | -0.038
RRIRIRPPRLPRPRPRPYANPRP | -0.0728
RRIRIRPPRLPRPRPRPCLRPRP | -1.04
RRIRRRPPRLPRPRPRPLAQPRP | 0.498
